US20250122292A1 (DOMA BIOPHARMACEUTICAL SUZHOU, published 2025)

Columns and labels:
Test in all cases: SPR (Biacore 8K, Protein A chip; His-tagged antigen as analyte; 1:1 Langmuir fit)
[1] = biological target: fasEGFR-His (ACROBiosystems Inc., Cat #: EGR-C52H5) (monkey)
From the text: (§1) Dissociation was monitored for 400 seconds.

[2] = biological target: T1, hEGFR-His (ACROBiosystems Inc., Cat #: EGR-H5222) (human, UniProt P00533 25-645)
T1 construct: Bought reagent; also called human EGFR; not shown: His tag
From the text: as §1

[3] = biological target: T2, hMET-His (ACROBiosystems Inc., Cat #: MET-H5227) (human, UniProt P08581 25-932)
T2 construct: Bought reagent; also called human MET; not shown: His tag
From the text: as §1

T2 sequence (P08581 25-932 limits assumed): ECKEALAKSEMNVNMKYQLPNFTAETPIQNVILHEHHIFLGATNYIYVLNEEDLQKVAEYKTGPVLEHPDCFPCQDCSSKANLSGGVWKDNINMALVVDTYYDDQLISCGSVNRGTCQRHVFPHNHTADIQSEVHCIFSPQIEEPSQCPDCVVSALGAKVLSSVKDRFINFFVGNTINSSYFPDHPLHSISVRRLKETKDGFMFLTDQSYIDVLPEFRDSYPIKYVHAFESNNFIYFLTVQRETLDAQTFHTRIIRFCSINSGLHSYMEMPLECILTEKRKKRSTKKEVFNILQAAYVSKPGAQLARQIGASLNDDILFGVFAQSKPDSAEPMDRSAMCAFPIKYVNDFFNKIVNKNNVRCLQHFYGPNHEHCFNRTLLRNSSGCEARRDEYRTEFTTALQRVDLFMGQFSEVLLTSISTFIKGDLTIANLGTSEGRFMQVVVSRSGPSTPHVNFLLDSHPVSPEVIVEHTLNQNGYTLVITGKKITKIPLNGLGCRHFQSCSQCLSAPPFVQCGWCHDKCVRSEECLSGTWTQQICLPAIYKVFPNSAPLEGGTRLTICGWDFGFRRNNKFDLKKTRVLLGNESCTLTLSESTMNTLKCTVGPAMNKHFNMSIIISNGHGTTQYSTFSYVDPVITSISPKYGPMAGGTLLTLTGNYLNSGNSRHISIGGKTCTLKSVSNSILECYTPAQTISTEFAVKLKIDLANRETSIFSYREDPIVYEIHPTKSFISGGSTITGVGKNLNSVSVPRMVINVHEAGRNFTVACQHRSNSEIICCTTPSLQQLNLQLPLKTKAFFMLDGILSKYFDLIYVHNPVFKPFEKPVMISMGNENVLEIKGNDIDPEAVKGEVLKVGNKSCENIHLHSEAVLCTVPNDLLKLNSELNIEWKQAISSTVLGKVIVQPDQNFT

Binder	Kd [1] [nM]	Kd [2] [nM]	koff [2] [s⁻¹]	kon [2] [M⁻¹ s⁻¹]	Kd [3] [nM]	koff [3] [s⁻¹]	kon [3] [M⁻¹ s⁻¹]	koff [1] [s⁻¹]	kon [1] [M⁻¹ s⁻¹]
E-6C4 (antibody, V domains shown, Anti-EGFR human monoclonal antibody from RenLite mice with the common light chain) VH: QVQLQQWGPGLVKPSQTLSLTCTVSGGSINSGDYYWSWIRQPPGKGLESIGYIYYSGSTYYNPSLKSRVTISADTSKNQFSLKLTSVTAADTAVYYCARERVYSSSLDYWGQGTLVTVSS VL: not shown	158								
E-6C4-M-2F11 (bispecific antibody, human IgG1, kappa, 1+1 knobs-into-holes bispecific with common light chain; also called anti-EGFR/MET bispecific antibody E-6C4-M-2F11) heavy 1: not shown heavy 2: EVQLVESGPGLVKPSETLSLTCTVSGGSISSNYWSWIRQPPGKGLEWIGYIYHSGSTNYNPSLKSRVTISVDTSKNQFSLKLSSVTAADTAVYFCARGPVSIFGVVKYIDLWGRGTLVTVSSASTKGPSVFPLAPSSKSTSGGTAALGCLVKDYFPEPVTVSWNSGALTSGVHTFPAVLQSSGLYSLSSVVTVPSSSLGTQTYICNVNHKPSNTKVDKKVEPKSCDKTHTCPPCPAPELLGGPSVFLFPPKPKDTLMISRTPEVTCVVVDVSHEDPEVKFNWYVDGVEVHNAKTKPREEQYNSTYRVVSVLTVLHQDWLNGKEYKCKVSNKALPAPIEKTISKAKGQPREPQVCTLPPSREEMTKNQVSLSCAVKGFYPSDIAVEWESNGQPENNYKTTPPVLDSDGSFFLVSKLTVDKSRWQQGNVFSCSVMHEALHNHYTQKSLSLSPGK light: not shown	115	70.7	0.0215	304000	50.5	0.00187	37000	0.0198	172000
